For series [1], the system named is peripheral blood mononuclear cells (PBMC). The series can be described thus: In Vitro PBMC Studies: Percent modification - G-CSF expression. The format is cell-based, human. Particulars: for G-CSF Expression: 480 ng mRNA. The protocol:
480 ng of G-CSF mRNA modified with 5-methylcytosine (5mC) and pseudouridine (pseudoU) or unmodified G-CSF mRNA was transfected with 0.4 uL of Lipofectamine 2000 into peripheral blood mononuclear cells (PBMC) from three normal blood donors (D1, D2, and D3). […] The supernatant was harvested and run by ELISA 22 hours after transfection to determine the protein expression. The expression of IFN-alpha and TNF-alpha may be a secondary effect from the transfection of the G-CSF mRNA.

For a further series, the system named is human PBMC. The series can be described thus: Cytokine Study: PBMC - G-CSF production (G-CSF ELISA). It is filed as cell-based. The settings on record: mRNA with Lipofectamine 2000. Here is the method: The plates were then incubated at 37° C.
Each condition was done in duplicate.
In the G-CSF ELISA, background signal from the Lipofectamine 2000 (LF2000) untreated condition was subtracted at each time point.

Series [2] deals with peripheral blood mononuclear cells (PBMC), IFN-alpha. Briefly: In Vitro PBMC Studies: Percent modification - IFN-alpha expression. The format is cell-based, human. Here is the method: (§1) The supernatant was harvested and run by ELISA 22 hours after transfection to determine the protein expression.
Series [3] has as its system peripheral blood mononuclear cells (PBMC). Briefly: Modified RNA transfected in PBMC (0.1-100% modification) - G-CSF expression. The format is cell-based, human. Here is the method: 500 ng of G-CSF mRNA modified with 5-methylcytosine (5mC) and pseudouridine (pseudoU) or unmodified G-CSF mRNA was transfected with 0.4 uL of Lipofectamine 2000 into peripheral blood mononuclear cells (PBMC) from three normal blood donors (D1, D2, and D3). […] The supernatant was harvested 6 hours and 18 hours after transfection and run by ELISA to determine the protein expression. The expression of G-CSF, IFN-alpha, and TNF-alpha for Donor 1 is shown in Table 10, Donor 2 is shown in Table 11 and Donor 3 is shown in Table 12.

Series [4] concerns peripheral blood mononuclear cells (PBMC), TNF-alpha. Briefly: In Vitro PBMC Studies: Percent modification - TNF-alpha expression. The format is cell-based, human. Here is the method:
as §1

In the next series the test system is mice. The series can be described thus: Intravenous Administration - neutrophil count. The settings on record: for Neutrophil: I.V. 50 ug RNA at days 0, 2 and 4, 10% lipoplex. The format is in vivo, mouse. The protocol: Neutrophils were measured at days 1, 5 and 8. Controls included non-specific mammalian RNA or the formulation buffer alone (F.Buffer). The mice were bled at days 1, 5 and 8 to determine the effect of mRNA-encoded human G-CSF to increase neutrophil count. The dosing regimen is shown in Table 21 as are the resulting neutrophil counts (thousands/uL; K/uL).
In Table 21, an asterisk (*) indicates statistical significance at p<0.001 compared to buffer.

Series [5] in a line: Stability of Modified RNA - storage, gel electrophoresis. It is filed as physicochemical. The protocol: Stability experiments were conducted to obtain a better understanding of storage conditions to retain the integrity of modified RNA. […] After the mRNA had been stored for 0 hours, 2 hours, 6 hours, 24 hours, 48 hours, 5 days and 14 days, the mRNA was analyzed by gel electrophoresis using a Bio-Rad EXPERION™ system. The modified, unmodified and lipoplexed G-CSF mRNA was also stored in RNASTABLE® (Biomatrica, Inc. San Diego, Calif.) at 40° C. or water at −80° C. or 40° C. for 35 days before being analyzed by gel electrophoresis.

In series [6] the test system is Human primary foreskin fibroblasts (BJ fibroblasts). Briefly: Cell Viability in BJ Fibroblasts (CELL TITER GLO, repeated transfection). It is filed as cell-based. The settings on record: normalized to untreated = 100%. The protocol:
Control samples of Lipofectamine 2000 (LF2000) and unmodified G-CSF mRNA were also transfected. The modified mRNA or control samples were transfected daily for 4 days. The viability of the cells after transfection was evaluated 6 hours and 24 hours after the first transfection (Ti, 6 hours or T1, 24 hours), and 24 hours after the second (T2, 24 hours) and fourth transfection (T4, 24 hours).
To determine cell viability, the culture medium was completely removed and the cells were washed once with 600 ul of sterile PBS without Ca2+/Mg2+ (Gibco/Life Technologies, Manassas, Va.) in order to rinse-off loosely attached cells. PBS was removed and discarded. The cleaned fibroblasts in each well were treated with 220 ul of a diluted CELL TITER GLO® (Promega, catalog #G7570) stock solution (the CELL TITER GLO® stock solution was further diluted 1:1 with an equal amount of sterile PBS). A sterile pipet tip was used to scratch the cells off the plate and accelerate the lysis process.
For two time intervals, T1, 24 hours and T2, 24 hours, an alternative protocol was applied. Cells were washed with PBS, as described above, and subsequently trypsinized with Trypsin/EDTA solution (Gibco/Life Technologies, Manassas, Va.). Cells were detached and collected in 500 ul of medium containing trypsin inhibitor. Cells were harvested by centrifugation at 1200 rcf for 5 minutes. The cell pellet was resuspended in 500 ul PBS. This cell suspension was kept on ice, and 100 ul of this was combined with 100 ul of undiluted Cell Titer Glo solution.
All of the CELL TITER GLO® lysates were then incubated at room temperature for 20 minutes. 20 ul of the lysates were transferred to a white opaque polystyrene 96-well plate (Corning, Manassas, Va.) and combined with 100 ul diluted CELL TITER GLO® solution. The plate reader used was from BioTek Synergy H1 (BioTek, Winooski, Vt.) and the absolute values were normalized to signal of the untreated BJ Fibroblasts to 100% cell vitality.

[7] abbreviates: PBMC donor D1, 0.4 uL Lipofectamine 2000, ELISA 22 hours after transfection.
[8] abbreviates: PBMC donor D2, 22 hours after transfection.
Where [9] appears, read: PBMC donor D3, 22 hours after transfection.

Turning to “Luciferase: control mRNA encoding luciferase (SEQ ID NO: 3), Cap 1, fully modified with 5-methylcytosine and pseudouridine [reference compound]”, the “G-CSF Expression” value amounted to 90.2 pg/mL in series [1] (setting [7]), 0.0 pg/mL in series [1] (setting [8]) and 22.1 pg/mL in series [1] (setting [9]). In addition, the “G-CSF: 3 Donor Average” value in the series with human PBMC worked out at 18 pg/mL.

B1: 100% modification: G-CSF mRNA (SEQ ID NO: 1, Cap1) completely modified with 5mC and pseudoU (nucleic acid, listed as Homo Sapiens)
chain: GGGAAAUAAGAGAGAAAAGAAGAGUAAGAAGAAAUAUAAGAGCCACCAUGGCCGGUCCCGCGACCCAAAGCCCCAUGAAACUUAUGGCCCUGCAGUUGCUGCUUUGGCACUCGGCCCUCUGGACAGUCCAAGAAGCGACUCCUCUCGGACCUGCCUCAUCGUUGCCGCAGUCAUUCCUUUUGAAGUGUCUGGAGCAGGUGCGAAAGAUUCAGGGCGAUGGAGCCGCACUCCAAGAGAAGCUCUGCGCGACAUACAAACUUUGCCAUCCCGAGGAGCUCGUACUGCUCGGGCACAGCUUGGGGAUUCCCUGGGCUCCUCUCUCGUCCUGUCCGUCGCAGGCUUUGCAGUUGGCAGGGUGCCUUUCCCAGCUCCACUCCGGUUUGUUCUUGUAUCAGGGACUGCUGCAAGCCCUUGAGGGAAUCUCGCCAGAAUUGGGCCCGACGCUGGACACGUUGCAGCUCGACGUGGCGGAUUUCGCAACAACCAUCUGGCAGCAGAUGGAGGAACUGGGGAUGGCACCCGCGCUGCAGCCCACGCAGGGGGCAAUGCCGGCCUUUGCGUCCGCGUUUCAGCGCAGGGCGGGUGGAGUCCUCGUAGCGAGCCACCUUCAAUCAUUUUUGGAAGUCUCGUACCGGGUGCUGAGACAUCUUGCGCAGCCGUGAAGCGCUGCCUUCUGCGGGGCUUGCCUUCUGGCCAUGCCCUUCUUCUCUCCCUUGCACCUGUACCUCUUGGUCUUUGAAUAAAGCCUGAGUAGGAAG
modifications: Cap1; 5-methylcytidine and pseudouridine
Turning to B1, the “G-CSF Expression” value in series [1] (setting [7]) was found to be 1968.9 pg/mL; in series [1] (setting [8]), 2595.6 pg/mL; in series [1] (setting [9]) it was 2835.7 pg/mL. Further, the “Average G-CSF” value in series [1] (average of PBMC donors D1-D3) amounted to 2466 pg/mL. The “Average IFN-a” value in series [2] turned out to be 153 pg/mL. Further, the “ratio of protein/cytokine production relative to natural G-CSF mRNA, IFN-alpha” value in series [2] (PBMC, Table 9) turned out to be 100 fold. Moreover, the “G-CSF/IFN-alpha (PC ratio)” value in series [2] (calculated from Tables 7 and 8) is 16. In addition, the G-CSF in series [3] (PBMC Donor 1, 500 ng mRNA, 6 hours after transfection) worked out at 1815 pg/mL; in series [3] (PBMC Donor 1, 18 hours after transfection), 2224 pg/mL; in series [3] (PBMC Donor 2, 6 hours after transfection), 2184 pg/mL; in series [3] (PBMC Donor 2, 18 hours after transfection) it was 2432 pg/mL; in series [3] (PBMC Donor 3, 6 hours after transfection), 6086 pg/mL; in series [3] (PBMC Donor 3, 18 hours after transfection), 7549 pg/mL. For the same molecule, the “Average TNF-a” value in series [4] worked out at 47 pg/mL. Besides, the “ratio of protein/cytokine production relative to natural G-CSF mRNA, TNF-alpha” value in series [4] (PBMC, Table 9) is listed as 27 fold. The “G-CSF/TNF-alpha (PC ratio)” value in series [4] (calculated from Tables 7 and 8) was 52.

B2: G-CSF (no modification): human G-CSF mRNA having no modifications, formulated in 10% lipoplex (RNAIMAX) (nucleic acid, listed as Homo Sapiens)
chain: B1 chain
modifications: Cap1; polyA tail; lipoplex
As to B2, the results for the Neutrophil in the series on mice (Day 1), in the series with mice (Day 5) and with mice (Day 8) were 1.88 K/uL, 1.95 K/uL and 2.09 K/uL, respectively.

B3: unmodified G-CSF: Unmodified G-CSF mRNA (SEQ ID NO: 1, Cap1), storage stability (nucleic acid, listed as Homo Sapiens)
chain: B1 chain
modifications: Cap1
Consider B3, for which the “stable out to” value in series [5] (stored at 25° C.) was 48 h; in series [5] (stored at 37° C.) it was 6 h; in series [5] (stored at 50° C.), 2 h. Besides, the “Percent Viability T1, 6 hours” value in series [6] (T1, 6 hours) amounted to 101%. The “Percent Viability T1, 24 hours” value in series [6] (T1, 24 hours) turned out to be 72%. Further, in series [6] (T2, 24 hours), the “Percent Viability T2, 24 hours” value is 74%. Besides, the “Percent Viability T4, 24 hours” value in series [6] (T4, 24 hours) was 42%.

B4: G-CSF modified mRNA: control modified G-CSF mRNA (SEQ ID NO: 1, Cap 1), fully modified 5-methylcytosine and pseudouridine, 8.4 nM (nucleic acid, listed as Homo Sapiens)
chain: B1 chain
modifications: Cap1; 5-methylcytosine and pseudouridine
B4: in the series with mice (intravenous administration), the “increase in neutrophil count above control at day 5” value is listed as “four to five fold increase”.

The values above are taken from patent US20130123481A1, “MODIFIED NUCLEOSIDES, NUCLEOTIDES, AND NUCLEIC ACIDS, AND USES THEREOF” (MODERNA THERAPEUTICS, priority 2011, published 2013).
